Data on 4 molecules can be found in patent US20180273639A1 (YEDA RESEARCH AND DEVELOPMENT, published 2018).

In assay [1] the target is T1, MmQSOX1Trx (Mus musculus, UniProt Q8BND5 36-275).
T1 construct: Residues 36-275 of Mus musculus QSOX1, made in E. coli, purified on Ni-NTA; also called MmQSOX1Trv; Trx module of MmQSOX1
T1 sequence: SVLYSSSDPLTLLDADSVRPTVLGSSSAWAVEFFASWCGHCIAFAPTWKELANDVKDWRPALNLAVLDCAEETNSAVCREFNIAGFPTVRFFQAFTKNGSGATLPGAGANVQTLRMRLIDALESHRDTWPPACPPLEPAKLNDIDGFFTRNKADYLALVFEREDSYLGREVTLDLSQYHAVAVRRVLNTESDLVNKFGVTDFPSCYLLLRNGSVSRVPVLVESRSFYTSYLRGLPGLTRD
The assay can be described thus: analytical size-exclusion chromatography. As for the experimental part: (§1) MsQSOX1-antibody complexes were injected after a 30 min co-incubation at 4° C. Elution of proteins was monitored by absorbance at 280 nm.

Assay [2] has as its target T2, MmQSOX1Erv (Mus musculus, UniProt Q8BND5 289-550, FAD cofactor bound).
T2 construct: also called MmQSOX1 Erv module
T2 sequence: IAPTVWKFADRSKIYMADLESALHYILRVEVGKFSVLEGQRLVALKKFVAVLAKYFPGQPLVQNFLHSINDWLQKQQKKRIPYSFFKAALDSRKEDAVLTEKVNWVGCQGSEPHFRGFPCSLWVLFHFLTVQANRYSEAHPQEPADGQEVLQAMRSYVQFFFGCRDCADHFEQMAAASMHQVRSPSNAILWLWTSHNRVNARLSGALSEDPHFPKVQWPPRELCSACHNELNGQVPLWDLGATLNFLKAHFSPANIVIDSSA
The assay can be described thus: analytical size-exclusion chromatography. Here is the method: as §1
Background: Size exclusion chromatography separates by hydrodynamic size, large species first.

Assay [3] deals with T1, MmQSOX1Trx. The assay can be described thus: complex purified by size-exclusion chromatography. Here is the method: A stop codon was inserted after the CH1 segment of the heavy chain, to obtain a coding sequence for a Fab fragment. […] Prior to crystallization the complexes were concentrated to 10 mg/ml.
Assay [4] deals with T3, Homo sapiens QSOX1 (recombinant HsQSOX1) (Homo sapiens, UniProt O00391 33-546, limits assumed).
T3 sequence: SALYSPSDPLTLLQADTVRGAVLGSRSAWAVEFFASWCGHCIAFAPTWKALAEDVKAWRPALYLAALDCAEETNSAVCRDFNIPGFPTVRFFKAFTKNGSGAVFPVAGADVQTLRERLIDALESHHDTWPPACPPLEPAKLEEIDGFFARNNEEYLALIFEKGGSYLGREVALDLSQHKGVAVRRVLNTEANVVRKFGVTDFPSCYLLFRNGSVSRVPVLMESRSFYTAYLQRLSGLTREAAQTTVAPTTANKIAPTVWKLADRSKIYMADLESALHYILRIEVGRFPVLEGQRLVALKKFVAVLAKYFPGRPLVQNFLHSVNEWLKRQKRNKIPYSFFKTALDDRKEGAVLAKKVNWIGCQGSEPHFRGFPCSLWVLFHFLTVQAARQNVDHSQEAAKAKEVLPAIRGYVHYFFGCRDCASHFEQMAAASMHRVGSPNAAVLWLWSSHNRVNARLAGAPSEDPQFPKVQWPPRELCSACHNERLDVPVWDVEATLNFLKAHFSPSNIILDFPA
The assay can be described thus: cell-based or functional assay.

Assay [5] deals with MmQSOX1 A116P (Mus musculus). The assay can be described thus: cell-based or functional assay.
Assay [6] has as its target MmQSOX1 TLPG(138-141)VFPV (Mus musculus). The assay can be described thus: cell-based or functional assay.
Assay [7] has as its target MmQSOX1 A116P and TLPG(138-141)VFPV (Mus musculus). The assay can be described thus: cell-based or functional assay.
Assay [8] concerns the target T4, biotinylated MmQSOX1Trx (Mus musculus, UniProt Q8BND5 36-275, Biotin on the lysine of the C-terminal AviTag (tag not in the letters); in early screening rounds pre-loaded with streptavidin-APC).
T4 construct: Used for yeast-surface display; in the first screening rounds pre-loaded with streptavidin-APC in a 1:4 molar ratio; also called MmQSOX1Trx with AviTag; not shown: purification tag
T4 sequence: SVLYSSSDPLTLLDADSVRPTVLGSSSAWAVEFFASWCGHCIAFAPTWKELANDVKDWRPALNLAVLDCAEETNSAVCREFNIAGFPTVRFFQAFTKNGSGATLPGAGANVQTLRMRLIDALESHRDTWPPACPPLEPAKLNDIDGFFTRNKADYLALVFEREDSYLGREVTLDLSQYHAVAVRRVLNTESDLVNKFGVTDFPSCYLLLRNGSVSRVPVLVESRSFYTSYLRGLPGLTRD
The assay can be described thus: yeast-surface display flow cytometry. For orientation: A flow cytometer gives signals particle by particle.

B1: MAb316.1 (antibody, V domains shown)
VH: QVQLQQSGPELVKPGASVKISCKASGYSFTSYYIHWVKQRPGQGLEWIGWIYPGSYNTEYSEKFKGKATLTADTSSSTAYMQLSSLTSEDSAVYYCARSEDWFAYWGQGTLVTVS
VL: QIVLTQSPAIMSASPGEKVTISCSASSSVSYMYWYHQKPGSSPKPWIYRTSNLASGVPARFSGSGSGTSYSLTISSMEAEDAATYYCQQYHSYPLTFGAGTKLELK
notes: Hybridoma antibody from QSOX1 knock-out mice immunised with MmQSOX1
Take B1: the binding result is “binds” in assay [1] and “no binding” in assay [2].

B2: Fab316.1 (Fab, V domains shown)
VH: QVQLQQSGPELVKPGASVKISCKASGYSFTSYYIHWVKQRPGQGLEWIGWIYPGSYNTEYSEKFKGKATLTADTSSSTAYMQLSSLTSEDSAVYYCARSEDWFAYWGQGTLVTVS
VL: QIVLTQSPAIMSASPGEKVTISCSASSSVSYMYWYHQKPGSSPKPWIYRTSNLASGVPARFSGSGSGTSYSLTISSMEAEDAATYYCQQYHSYPLTFGAGTKLELK
notes: also called Fab fragment of MAb316.1
Turning to B2, the binding result in assay [3] is listed as “binds”.

B3: MAb492.1 (antibody, V domains shown)
VH: QVQLKQSGPGLVAPSQSLSITCTVSGFSLTGYGVNWVRQSPGKGLEWLGMIWGDGRTDYKSALKSRLSITKDNSKSQVFLKMNSLQTDDTARYFCASDYYGSGSFAYWGQGTLVTVSA
VL: DVVMTQTHKFMSTSVGDRVSITCKASQDVSTAVAWYQQKSGQSPKLLIHSASYRYTGVPDRFTGSGSGTDFTFTISSVQAEDLAVYYCQQHYSIPLTFGAGTKLELK
On to B3, for which the “percent inhibition of enzyme activity, oxygen consumption assay” value in assay [4] was 100%; in assay [5], ~60%; in assay [6] it was ~50%; in assay [7], 100%.

B4: scFv492.1 S93A Y99S Y100K G101D S102P D58E T31G H49S S50M Y52Q (scFv, V domains shown)
VH: QVQLKQSGPGLVAPSQSLSITCTVSGFSLTGYGVNWVRQSPGKGLEWLGMIWGDGRTEYKSALKSRLSITKDNSKSQVFLKMNSLQTDDTARYFCASDSKDPGSFAYWGQGTLVTVSA
VL: DVVMTQTHKFMSTSVGDRVSITCKASQDVSGAVAWYQQKSGQSPKLLISMASQRYTGVPDRFTGSGSGTDFTFTISSVQAEDLAVYYCQQHYAIPLTFGAGTKLELK
notes: also called template d; not shown: scFv linker and domain order; yeast display fusion partner and cMyc tag (pETCON)
Consider B4, for which the binding result in assay [8] is “binds”.
